B1: PR301558 (antibody, V domains shown)
VH: QVQLVQSGAEVKKPGASVKLSCKASGYSFTSYWVNWVRQAPGQGLEWIGMIHPSDSETRLNQKFKDRVTITVDKSTSTAYMELSSLRSEDTAVYYCARADGYEWYFDVWGRGTLVTVSS
VL: DIVLTQSPASLAVSPGQRATITCRASESVDSYGNSFMHWYQQKPGQPPKLLIYRASNLESGIPARFSGSGSRTDFTLTINPVEANDVANYYCQQSNEDPWTFGQGTKVEIK
B2: PR301557 (antibody, V domains shown)
VH: QVQLVQSGAEVKKPGASVKLSCKASGYSFTSYWVNWVRQAPGQGLEWIGMIHPSDSETRLNQKFKDRVTITVDKSTSTAYMELSSLRSEDTAVYYCARADGYEWYFDVWGRGTLVTVSS
VL: DIVLTQSPASLAVSPGQRATITCRASESVDSYGNSFMHWYQQKPGQPPKLLIYRASNLESGVPARFSGSGSRTDFTLTINPVEANDVANYYCQQSNEDPWTFGQGTKVEIK
B3: PR301442 (antibody, V domains shown)
VH: QVQLVQSGAEVKKPGASVKLSCKASGYSFTSYWVNWVRQAPGQGLEWIGMIHPSDSETRLNQKFKDRVTITVDKSTSTAYMELSSLRSEDTAVYYCARADGYEWYFDVWGRGTLVTVSS
VL: DIVLTQSPASLAVSPGQRATITCRASESVDSYGNSFMHWYQQKPGQPPKLLIYRASNLESGIPARFSGSGSGTDFTLTINPVEANDVANYYCQQSNEDPWTFGQGTKVEIK
B4: PR301441 (antibody, V domains shown)
VH: QVQLVQSGAEVKKPGASVKVSCKASGYSFTSYWVNWVRQAPGQGLEWMGMIHPSDSETRLNQKFKDRVTMTVDKSTSTAYMELSSLRSEDTAVYYCARADGYEWYFDVWGRGTLVTVSS
VL: DIVLTQSPASLAVSPGQRATITCRASESVDSYGNSFMHWYQQKPGQPPKLLIYRASNLESGVPARFSGSGSRTDFTLTINPVEANDVANYYCQQSNEDPWTFGQGTKVEIK
B5: PR301556 (antibody, V domains shown)
VH: QVQLVQSGAEVKKPGASVKVSCKASGYSFTSYWVNWVRQAPGQGLEWMGMIHPSDSETRLNQKFKDRVTMTVDKSTSTAYMELSSLRSEDTAVYYCARADGYEWYFDVWGRGTLVTVSS
VL: DIVLTQSPASLAVSPGQRATITCRASESVDSYGNSFMHWYQQKPGQPPKLLIYRASNLESGIPARFSGSGSRTDFTLTINPVEANDVANYYCQQSNEDPWTFGQGTKVEIK
B6: PR301445 (antibody, V domains shown)
VH: QVQLVQSGAEVKKPGASVKISCKTSGYTFTEYTMYWVRQAPGQRLEWMGGINPNNGDTSYNQKFKGRATLTVDKSATTAYMELSSLRSEDTAVYYCARDGYPYYFAMDYWGQGTTVTVSS
VL: DIQMTQSPSSLSASVGDRVTITCKASQNVDTNVAWYQQKPGKAPKGLIYSASHRYSGVPSRFSGSGSGTDFTLTISSVQPEDLATYFCQQYNTYPWTFGQGTKVEIK
B7: PR301566 (antibody, V domains shown)
VH: QVQLVQSGAEVKKPGASVKISCKTSGYTFTEYTMYWVRQAPGQRLEWMGGINPNQGDTSYNQKFKGRATLTVDKSATTAYMELSSLRSEDTAVYYCARDGYPYYFAMDYWGQGTTVTVSS
VL: DIQMTQSPSSLSASVGDRVTITCKASQNVDTNVAWYQQKPGKAPKGLIYSASHRYSGVPSRFSGSGSGTDFTLTISSVQPEDLATYFCQQYNTYPWTFGQGTKVEIK
B8: PR301447 (antibody, V domains shown)
VH: QVQLVQSGAEVKKPGASVKISCKTSGYTFTEYTMYWVRQAPGQRLEWMGGINPNQGDTSYNQKFKGRATLTVDKSATTAYMELSSLRSEDTAVYYCAREGYPYYFAMDYWGQGTTVTVSS
VL: DIQMTQSPSSLSASVGDRVTITCKASQNVDTNVAWYQQKPGKAPKGLIYSASSRYSGVPSRFSGSGSGTDFTLTISSVQPEDLATYFCQQYNTYPWTFGQGTKVEIK
B9: PR301568 (antibody, V domains shown)
VH: QVQLVQSGAEVKKPGASVKISCKTSGYTFTEYTMYWVRQAPGQRLEWMGGINPNQGDTSYNQKFKGRATLTVDKSATTAYMELSSLRSEDTAVYYCAREGYPYYFAMDYWGQGTTVTVSS
VL: DIQMTQSPSSLSASVGDRVTITCKASQNVDTNVAWYQQKPGKAPKGLIYSASHRYSGVPSRFSGSGSGTDFTLTISSVQPEDLATYFCQQYNTYPWTFGQGTKVEIK
B10: PR301565 (antibody, V domains shown)
VH: QVQLVQSGAEVKKPGASVKISCKTSGYTFTEYTMYWVRQAPGQRLEWMGGINPNQGDTSYNQKFKGRATLTVDKSATTAYMELSSLRSEDTAVYYCARDGYPYYFAMDYWGQGTTVTVSS
VL: DIQMTQSPSSLSASVGDRVTITCKASQNVDTNVAWYQQKPGKAPKGLIYSASHRYSGVPSRFSGSGSGTDFTLTISSLQPEDLATYFCQQYNTYPWTFGQGTKVEIK
B11: PR301563 (antibody, V domains shown)
VH: QVQLVQSGAEVKKPGASVKISCKTSGYTFTEYTMYWVRQAPGQRLEWMGGINPNNGDTSYNQKFKGRATLTVDKSATTAYMELSSLRSEDTAVYYCARDGYPYYFAMDYWGQGTTVTVSS
VL: DIQMTQSPSSLSASVGDRVTITCKASQNVDTNVAWYQQKPGKAPKGLIYSASHRYSGVPSRFSGSGSGTDFTLTISSLQPEDLATYFCQQYNTYPWTFGQGTKVEIK
B12: PR301562 (antibody, V domains shown)
VH: QVQLVQSGAEVKKPGASVKVSCKTSGYTFTEYTMYWVRQAPGQRLEWMGGINPNNGDTSYNQKFKGRVTITVDKSATTAYMELSSLRSEDTAVYYCARDGYPYYFAMDYWGQGTTVTVSS
VL: DIQMTQSPSSLSASVGDRVTITCKASQNVDTNVAWYQQKPGKAPKGLIYSASSRYSGVPSRFSGSGSGTDFTLTISSVQPEDLATYFCQQYNTYPWTFGQGTKVEIK
B13: PR301444 (antibody, V domains shown)
VH: QVQLVQSGAEVKKPGASVKVSCKTSGYTFTEYTMYWVRQAPGQRLEWMGGINPNNGDTSYNQKFKGRVTITVDKSATTAYMELSSLRSEDTAVYYCARDGYPYYFAMDYWGQGTTVTVSS
VL: DIQMTQSPSSLSASVGDRVTITCKASQNVDTNVAWYQQKPGKAPKGLIYSASHRYSGVPSRFSGSGSGTDFTLTISSLQPEDLATYFCQQYNTYPWTFGQGTKVEIK
B14: PR301561 (antibody, V domains shown)
VH: QVQLVQSGAEVKKPGASVKVSCKTSGYTFTEYTMYWVRQAPGQRLEWMGGINPNNGDTSYNQKFKGRVTITVDKSATTAYMELSSLRSEDTAVYYCARDGYPYYFAMDYWGQGTTVTVSS
VL: DIQMTQSPSSLSASVGDRVTITCKASQNVDTNVAWYQQKPGKAPKGLIYSASHRYSGVPSRFSGSGSGTDFTLTISSVQPEDLATYFCQQYNTYPWTFGQGTKVEIK
B15: PR301564 (antibody, V domains shown)
VH: QVQLVQSGAEVKKPGASVKISCKTSGYTFTEYTMYWVRQAPGQRLEWMGGINPNNGDTSYNQKFKGRATLTVDKSATTAYMELSSLRSEDTAVYYCARDGYPYYFAMDYWGQGTTVTVSS
VL: DIQMTQSPSSLSASVGDRVTITCKASQNVDTNVAWYQQKPGKAPKGLIYSASSRYSGVPSRFSGSGSGTDFTLTISSVQPEDLATYFCQQYNTYPWTFGQGTKVEIK
B16: PR301567 (antibody, V domains shown)
VH: QVQLVQSGAEVKKPGASVKISCKTSGYTFTEYTMYWVRQAPGQRLEWMGGINPNQGDTSYNQKFKGRATLTVDKSATTAYMELSSLRSEDTAVYYCAREGYPYYFAMDYWGQGTTVTVSS
VL: DIQMTQSPSSLSASVGDRVTITCKASQNVDTNVAWYQQKPGKAPKGLIYSASHRYSGVPSRFSGSGSGTDFTLTISSLQPEDLATYFCQQYNTYPWTFGQGTKVEIK
B17: PR301446 (antibody, V domains shown)
VH: QVQLVQSGAEVKKPGASVKISCKTSGYTFTEYTMYWVRQAPGQRLEWMGGINPNQGDTSYNQKFKGRATLTVDKSATTAYMELSSLRSEDTAVYYCARDGYPYYFAMDYWGQGTTVTVSS
VL: DIQMTQSPSSLSASVGDRVTITCKASQNVDTNVAWYQQKPGKAPKGLIYSASSRYSGVPSRFSGSGSGTDFTLTISSVQPEDLATYFCQQYNTYPWTFGQGTKVEIK

For one test, the target named is T1, SARS-CoV-2(2019-nCoV)Spike Protein(S1 Subunit,His Tag) (SARS-CoV-2 (2019-nCoV), UniProt P0DTC2 16-685).
Test: not given
B1 displayed an EC50 of 0.0405 nM.
Take B2: the midpoint of the response, the EC50, lay at 0.0438 nM.
Still for that read-out and setting: under B3 stands 0.0294 nM; under B4, 0.0154 nM.
As for B5, a half-maximal response (EC50) required 0.0272 nM.
Still for that read-out and setting: the figure for B6 is 0.0147 nM; for B7 it is 0.0149 nM; for B8 it is 2.22 nM.
As for B9, the EC50 worked out at 9.41 nM.
B10 gave a 50% effective concentration (EC50) of 0.0143 nM.
The same measure, in the same setting: under B11 stands 0.0217 nM; under B12, 0.015 nM.
B13: the EC50 came to 0.0204 nM.
On the same count and under the same terms, under B14 stands 0.022 nM.
The same measure, in the same setting: under B15 stands 0.0154 nM; under B16, 7.54 nM.

For another test, the target named is T1, SARS-CoV-2(2019-nCoV)Spike Protein(S1 …). Put plainly: ELISA, S1-His coated, antibody titrated.
In turn, B17 returned an EC50 of 0.00943 nM.

For orientation: EC50 means the concentration that produces a half-maximal response.
